The record followed here is patent publication US20180222961A1 (IMMATICS BIOTECHNOLOGIES, published 2018).

The target in the first experiment is T1, HLA-A*02:01 (human).
T1 construct: also called peptide-receptive MHC molecules
The experiment is described as follows: UV-exchange b2m ELISA; exchange-yield grade. An outline of the steps:
(§1)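 Exchange yield assessed by anti-β2m ELISA of UV-exchanged peptide-MHC monomers; absorbance at 450 nm compared with monomer standard curve.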
Molecule KVLGVNVML came in with a peptide exchange yield of more than 75%.

Take YMVHIQVTL: the peptide exchange yield was more than 75%.

The molecule GLLSLTSTLYL yielded a peptide exchange yield of more than 75%.

For MIPTFTALL, the peptide exchange yield lay in the range of 50 to 75%.

With MMEEMIFNL, the peptide exchange yield was more than 75%.

For the molecule FLDPDRHFL, the peptide exchange yield was more than 75%.

A further experiment concerns the target T2, HLA-B*44:02 (human).
T2 construct: also called peptide-receptive MHC molecules
The experiment can be described thus: UV-exchange b2m ELISA; exchange-yield grade. An outline of the steps:
as §1
SEDPSKLEA: the peptide exchange yield lay in the range of 10 to 20%.

As to EDAALFKAW, the peptide exchange yield fell in the range of 20 to 50%.

Turning to LELPPILVY, the peptide exchange yield lay in the range of 10 to 20%.

Molecule REPGDIFSEL came in with a peptide exchange yield of 20 to 50%.

In turn, REEFVSIDHL displayed a peptide exchange yield of 20 to 50%.

With FESHSTVSA, the peptide exchange yield was 10 to 20%.

TEAVVTNEL had a peptide exchange yield of 20 to 50%.

Turning to IEALSGKIEL (also called lEALSGKIEL), the peptide exchange yield fell in the range of 20 to 50%.

Regarding REKFIASVI, the peptide exchange yield is 20 to 50%.

For the molecule HEFGHVLGL, the peptide exchange yield lay in the range of 20 to 50%.

Regarding AEHFSMIRA, the peptide exchange yield lay within 20 to 50%.

Take SEVPTGTTA: the peptide exchange yield lay within 20 to 50%.

Consider KEAIREHQM, for which the peptide exchange yield is 20 to 50%.

In turn, PEKTTHSF had a peptide exchange yield of 10 to 20%.

As to AEQDPDELNKA, the peptide exchange yield lay within 20 to 50%.

GEPATTVSL gave a peptide exchange yield of 20 to 50%.

For HESSSHHDL, the peptide exchange yield was in the range of 20 to 50%.

In the case of SDSQVRAF, the peptide exchange yield was 10 to 20%.

In turn, EEQYIAQF displayed a peptide exchange yield of 10 to 20%.

Molecule QEILTQVKQ displayed a peptide exchange yield of 20 to 50%.

TEFPLFSAA came in with a peptide exchange yield of 10 to 20%.
